Drawing on publication PMC3549490, this text covers Kd and stoichiometry N for two substances.

“And” between values parts separate entries of the source, which are not always exact repeats. Equal values may be shown once.

Test [1] deals with UNC-45 (C. elegans), full-length recombinant protein (C. elegans). As to the kind of experiment: ITC.
Test [2] has as its target UNC-45 Q452pBpa (wild-type Q452B) (C. elegans). As to the kind of experiment: cross-linking.

The term Kd denotes a measure of binding affinity in units of concentration. “Hsp90 (DAF-21 in C. elegans), full-length recombinant protein (from UniProt Q18688 1-702) (natural protein)”: the dissociation constant (Kd) in test [1] amounted to 31 µM.
Broadly, the stoichiometry N is a count of units in the complex or per binding partner. For the substance “UNC-45 Q452pBpa (wild-type Q452B) (natural protein)”, the stoichiometry N in test [2] is 2 and > 5.
